Target: S. lophii 70 S ribosome (Spraguea lophii (endogenous in spores))
Experiment: cryo-EM structure

percent of particles in the monomeric class: 1.6%
stoichiometry N: 2
Substance: S. lophii 70 S ribosome (complex)
